These are literature values, as cited in publication PMC5998221.

In data set [1] the target is Asp52 (UniProt position 70, TDGSTDYGILQ).
In data set [2] the target is Asp101 (UniProt position 119, KKIVSDGNGMN).
Data set [3] concerns the target Asp119 (UniProt position 137, RCKGTDVQAWI).
Data set [4] addresses Asp48 (UniProt position 66, TNRNTDGSTDY).
In data set [5] the target is Asp87 (UniProt position 105, ALLSSDITASV).
Data set [6] has as its target Glu7 (UniProt position 25, VFGRCELAAAM).
Data set [7] concerns the target Asp66 (UniProt position 84, RWWCNDGRTPG).
Data set [8] concerns the target Glu35 (UniProt position 53, CAAKFESNFNT).
In data set [9] the target is Asp18 (UniProt position 36, KRHGLDNYRGY).

Usually pKa stands for the pH at which an ionisable group is half protonated. Regarding “Hen egg white lysozyme (HEWL, lysozyme C) (Gallus gallus)”, the pKa in [1] was 3.6; in [2], 4.5; in data set [3], 3.5; in [4], 1.4; in data set [5], 2.2; in [6], 2.6. Besides, the pKa in data set [7] is recorded as 1.2; in [8] it was 6.1; in data set [9], 2.8.
